# In IntAct's records for PubMed 16923827:
# B1: Spindle pole body assembly component MPS3 (Saccharomyces cerevisiae), P47069 (parent)
# chain: MNNSNEHRREEAGAANEQMPYNKAVKSAYADVLKDKMNREQEISLRAIKKGIYTDGGETDNYDMDKENDSAYEMFKKNLDFPLDQHNDDDDDDPYIEDNGQETDGYSDEDYTDEADKSFIEDSDSDSYDLESNSDFEENLESSGEAKKLKWRTYIFYGGLFFVFYFFGSFLMTTVKNNDLESHSSGATSSPGKSFSNLQKQVNHLYSELSKRDEKHSSELDKTVKIIVSQFEKNIKRLLPSNLVNFENDINSLTKQVETISTSMSELQRRNHKFTVENVTQWQDQLVKQLDTHLPQEIPVVINNSSSLLIIPELHNYLSALISDVIESPGIGTAGSAESRWEYDLNRYVKEILSNELQYIDKDYFIQEMNRRLQSNKQEIWEEITNRLETQQQQQQQQVQQDYSNVPQQYSSILMKRLIHQIYNSNQHQWEDDLDFATYVQGTKLLNHLTSPTWRQGSGVQPIELLTDSKQSSSTYWQCENEPGCSWAIRFKTPLYLTKISYMHGRFTNNLHIMNSAPRLISLYVKLSQTKEIKALQTLANQYGFGQHHKRDRNYIKIAKFEYRLTDSRIRQQMYLPPWFIQLKPLVRSIVFQVDENYGNKKFISLRKFIINGVTPQDLQIIENNEFPVLLGDTPEYGVTQNTDEGKRKVLLSKPPYASSSTSTKFHPASNVPSFGQDELDQ
# partner: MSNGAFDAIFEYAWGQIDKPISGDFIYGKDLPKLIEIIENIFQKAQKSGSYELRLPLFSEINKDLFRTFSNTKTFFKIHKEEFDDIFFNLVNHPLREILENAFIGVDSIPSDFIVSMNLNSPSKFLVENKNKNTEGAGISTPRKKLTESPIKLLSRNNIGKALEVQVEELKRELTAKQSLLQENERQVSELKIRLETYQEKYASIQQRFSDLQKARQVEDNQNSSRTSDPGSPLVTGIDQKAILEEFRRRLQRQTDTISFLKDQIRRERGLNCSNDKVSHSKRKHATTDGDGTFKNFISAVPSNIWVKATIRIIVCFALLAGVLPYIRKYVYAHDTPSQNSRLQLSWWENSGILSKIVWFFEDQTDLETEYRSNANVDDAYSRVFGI
# Variants of: B1
# Settings: with mps2_yeast MPS2, P53159
row,effect of a mutation on the interaction,Variant
1,decreasing interaction,Q572L;Q573L
2,decreasing interaction,W477A
3,decreasing interaction,W487A
